# Laboratory results from publication PMC8956589, “Crystal structure of progeria mutant S143F lamin A/C reveals increased hydrophobicity driving nuclear deformation” (Communications Biology, 2022).
# B1: wild-type lamin A/C fragment (residues 1–300) (domain or fragment, human, UniProt P02545 1-300, looked up)
# chain: METPSQRRATRSGAQASSTPLSPTRITRLQEKEDLQELNDRLAVYIDRVRSLETENAGLRLRITESEEVVSREVSGIKAAYEAELGDARKTLDSVAKERARLQLELSKVREEFKELKARNTKKEGDLIAAQARLKDLEALLNSKEAALSTALSEKRTLEGELHDLRGQVAKLEAALGEAKKQLQDEMLRRVDAENRLQTMKEELDFQKNIYSEELRETKRRHETRLVEIDNGKQREFESRLADALQELRAQHEDQVEQYKKELEKTYSAKLDNARQSAERNSNLVGAAHEELQQSRIRID
# notes: human lamin A/C, residues 1-300 (head, coil 1a, L1, coil 1b, L12 and part of coil 2); Dimer by SEC-MALS; The vector pProEx-HTa is named for the S143F construct; also called lamin 300 fragment; wild-type lamin 300 fragment; source: E. coli, purified (cobalt-Talon, TEV cleavage, HiTrap Q, SEC)
# B2: S143F mutant lamin A/C fragment (residues 1–300) (domain or fragment, human, UniProt P02545 1-300, looked up)
# chain: METPSQRRATRSGAQASSTPLSPTRITRLQEKEDLQELNDRLAVYIDRVRSLETENAGLRLRITESEEVVSREVSGIKAAYEAELGDARKTLDSVAKERARLQLELSKVREEFKELKARNTKKEGDLIAAQARLKDLEALLNFKEAALSTALSEKRTLEGELHDLRGQVAKLEAALGEAKKQLQDEMLRRVDAENRLQTMKEELDFQKNIYSEELRETKRRHETRLVEIDNGKQREFESRLADALQELRAQHEDQVEQYKKELEKTYSAKLDNARQSAERNSNLVGAAHEELQQSRIRID
# notes: human lamin A/C, residues 1-300, with the disease mutation S143F (a genetic mutation found in patients); Vector pProEx-HTa; Ordered in the crystal: residues 29-229 and 31-229; also called S143F mutant lamin 300 fragment; Lamin S143F (residues 1–300); source: E. coli BL21 (DE3) or B834 (DE3), purified (cobalt-Talon, TEV cleavage, HiTrap Q, SEC)
# Experiments:
# [1] = molecular target: the molecule itself; experiment: SEC-MALS; 2 mg/mL sample on Superdex 200 Increase 10/300 GL, 20 mM Tris-HCl (pH 7.5), 150 mM NaCl
# [2] = molecular target: B1; experiment: pull-down; hexaHis-tagged lamin 250–400 immobilised on Ni-NTA resin as bait, tagless lamin 300 fragments as prey; 20 mM Tris-HCl (pH 8.0), 50 mM or 150 mM NaCl, 20 mM imidazole in the wash, room temperature, 30 min; SDS-PAGE; details: both partners purified
# [3] = molecular target: B2; experiment: as above; details: both partners purified
binding result [2],binding result [3],Binder,stoichiometry N [1]
,,B1,2
,,B2,2
binds,binds,"hexaHis-tagged lamin fragment (residues 250–400) (domain or fragment, human, UniProt P02545 250-400, looked up, human lamin A/C, residues 250-400 (C-terminal fragment of coil 2); also called His-lamin 2 C fragment; lamin 2 C fragment; source: E. coli, purified) AQHEDQVEQYKKELEKTYSAKLDNARQSAERNSNLVGAAHEELQQSRIRIDSLSAQLSQLQKQLAAKEAKLRDLEDSLARERDTSRRLLAEKEREMAEMRARMQQQLDEYQELLDIKLALDMEIHAYRKLLEGEEERLRLSPSPTSQRSRG",
